{"source": "the Human Domainome abundance scans (Beltran et al. 2025)", "parents": {"B1": {"name": "3'-5' exoribonuclease 1, residues 65 to 114; numbered along this chain, Q8IV48 (parent)", "chain": "VYKEIAITNGCINRMSKEELRAKLSEFKLETRGVKDVLKKRLKNYYKKQK"}}, "note": "± gives the uncertainty stated by the source.", "data": [{"variants_of": "B1", "assay": "abundance fitness (aPCA) (normalised: wild type 0, dead -1); higher = more abundant; growth selection in yeast, the domain comes from the species named", "settings": "Homo sapiens", "values": [{"variant": "L29A", "abundance fitness": "-0.827 ± 0.044"}, {"variant": "L29D", "abundance fitness": "-0.878 ± 0.062"}, {"variant": "L29P", "abundance fitness": "-0.999 ± 0.049"}, {"variant": "L29M", "abundance fitness": "-0.198 ± 0.051"}, {"variant": "L29I", "abundance fitness": "-0.349 ± 0.041"}, {"variant": "K23L", "abundance fitness": "-0.176 ± 0.035"}, {"variant": "K23R", "abundance fitness": "-0.101 ± 0.036"}, {"variant": "K23V", "abundance fitness": "-0.182 ± 0.036"}, {"variant": "K23S", "abundance fitness": "-0.318 ± 0.039"}, {"variant": "K23W", "abundance fitness": "-0.234 ± 0.044"}, {"variant": "K23P", "abundance fitness": "-0.941 ± 0.061"}, {"variant": "K23Q", "abundance fitness": "-0.11 ± 0.049"}, {"variant": "K23T", "abundance fitness": "-0.172 ± 0.047"}, {"variant": "E26W", "abundance fitness": "-0.406 ± 0.07"}, {"variant": "E26M", "abundance fitness": "-0.267 ± 0.069"}, {"variant": "E26K", "abundance fitness": "-0.273 ± 0.08"}, {"variant": "E26I", "abundance fitness": "-0.432 ± 0.081"}, {"variant": "E26N", "abundance fitness": "-0.273 ± 0.083"}, {"variant": "E26R", "abundance fitness": "-0.472 ± 0.046"}, {"variant": "E26G", "abundance fitness": "-0.24 ± 0.042"}, {"variant": "E26L", "abundance fitness": "-0.22 ± 0.053"}, {"variant": "E26S", "abundance fitness": "-0.185 ± 0.048"}, {"variant": "E26F", "abundance fitness": "-0.169 ± 0.07"}, {"variant": "E26Y", "abundance fitness": "-0.153 ± 0.067"}, {"variant": "E26H", "abundance fitness": "-0.267 ± 0.079"}, {"variant": "E26D", "abundance fitness": "-0.119 ± 0.061"}, {"variant": "E26Q", "abundance fitness": "-0.102 ± 0.074"}, {"variant": "E26A", "abundance fitness": "-0.202 ± 0.052"}, {"variant": "E26P", "abundance fitness": "-0.964 ± 0.099"}, {"variant": "E26V", "abundance fitness": "-0.362 ± 0.054"}, {"variant": "E26C", "abundance fitness": "-0.31 ± 0.051"}, {"variant": "E26T", "abundance fitness": "-0.189 ± 0.068"}, {"variant": "L24N", "abundance fitness": "-1.03 ± 0.13"}, {"variant": "L24E", "abundance fitness": "-0.986 ± 0.081"}, {"variant": "L24D", "abundance fitness": "-1.05 ± 0.13"}, {"variant": "L24M", "abundance fitness": "-0.507 ± 0.052"}, {"variant": "L24G", "abundance fitness": "-0.97 ± 0.048"}, {"variant": "L24T", "abundance fitness": "-0.832 ± 0.084"}, {"variant": "L24P", "abundance fitness": "-0.984 ± 0.072"}, {"variant": "L24Q", "abundance fitness": "-0.927 ± 0.069"}, {"variant": "L24I", "abundance fitness": "-0.88 ± 0.13"}, {"variant": "L24C", "abundance fitness": "-0.052 ± 0.049"}, {"variant": "L24K", "abundance fitness": "-0.973 ± 0.086"}, {"variant": "L24S", "abundance fitness": "-0.488 ± 0.044"}, {"variant": "L24Y", "abundance fitness": "-0.896 ± 0.085"}, {"variant": "L24V", "abundance fitness": "-0.813 ± 0.046"}, {"variant": "L24W", "abundance fitness": "-0.902 ± 0.043"}, {"variant": "L24A", "abundance fitness": "-0.704 ± 0.06"}, {"variant": "L24R", "abundance fitness": "-0.96 ± 0.043"}, {"variant": "L24H", "abundance fitness": "-0.772 ± 0.083"}, {"variant": "T31Y", "abundance fitness": "0.121 ± 0.04"}, {"variant": "T31R", "abundance fitness": "-0.327 ± 0.042"}, {"variant": "T31F", "abundance fitness": "0.038 ± 0.037"}, {"variant": "T31P", "abundance fitness": "-0.114 ± 0.035"}, {"variant": "T31S", "abundance fitness": "-0.088 ± 0.033"}, {"variant": "T31V", "abundance fitness": "-0.106 ± 0.041"}, {"variant": "T31N", "abundance fitness": "-0.115 ± 0.038"}, {"variant": "T31I", "abundance fitness": "-0.134 ± 0.035"}, {"variant": "T31K", "abundance fitness": "-0.05 ± 0.054"}, {"variant": "T31Q", "abundance fitness": "-0.156 ± 0.045"}, {"variant": "T31M", "abundance fitness": "-0.285 ± 0.055"}, {"variant": "T31W", "abundance fitness": "-0.161 ± 0.071"}, {"variant": "T31A", "abundance fitness": "-0.198 ± 0.042"}, {"variant": "T31L", "abundance fitness": "-0.639 ± 0.035"}, {"variant": "T31G", "abundance fitness": "-0.791 ± 0.056"}, {"variant": "T31H", "abundance fitness": "0.143 ± 0.035"}, {"variant": "R32A", "abundance fitness": "-0.383 ± 0.036"}, {"variant": "R32L", "abundance fitness": "-0.703 ± 0.035"}, {"variant": "R32I", "abundance fitness": "-0.628 ± 0.037"}, {"variant": "R32H", "abundance fitness": "-0.319 ± 0.034"}, {"variant": "R32M", "abundance fitness": "-0.646 ± 0.051"}, {"variant": "R32K", "abundance fitness": "-0.209 ± 0.047"}, {"variant": "R32D", "abundance fitness": "-0.399 ± 0.049"}, {"variant": "R32S", "abundance fitness": "-0.318 ± 0.033"}, {"variant": "R32C", "abundance fitness": "-0.459 ± 0.04"}, {"variant": "R32N", "abundance fitness": "-0.409 ± 0.037"}, {"variant": "R32G", "abundance fitness": "-0.394 ± 0.039"}, {"variant": "R32F", "abundance fitness": "-0.521 ± 0.042"}, {"variant": "R32P", "abundance fitness": "-0.964 ± 0.042"}, {"variant": "R32T", "abundance fitness": "-0.292 ± 0.035"}, {"variant": "R32Q", "abundance fitness": "-0.396 ± 0.043"}, {"variant": "R32E", "abundance fitness": "-0.572 ± 0.067"}, {"variant": "R32V", "abundance fitness": "-0.471 ± 0.036"}, {"variant": "R32W", "abundance fitness": "-0.478 ± 0.051"}]}]}
